Data reported in paper PMC6504876, “TFIIE orchestrates the recruitment of the TFIIH kinase module at promoter before release during transcription” (Nature Communications, 2019).
Positions count from the first letter of the chain named. Names and notes keep the numbering of the source.

B1: Flag-TFIIEα (natural protein, UniProt P29083 1-439, looked up)
chain: MADPDVLTEVPAALKRLAKYVIRGFYGIEHALALDILIRNSCVKEEDMLELLKFDRKQLRSVLNNLKGDKFIKCRMRVETAADGKTTRHNYYFINYRTLVNVVKYKLDHMRRRIETDERDSTNRASFKCPVCSSTFTDLEANQLFDPMTGTFRCTFCHTEVEEDESAMPKKDARTLLARFNEQIEPIYALLRETEDVNLAYEILEPEPTEIPALKQSKDHAATTAGAASLAGGHHREAWATKGPSYEDLYTQNVVINMDDQEDLHRASLEGKSAKERPIWLRESTVQGAYGSEDMKEGGIDMDAFQEREEGHAGPDDNEEVMRALLIHEKKTSSAMAGSVGAAAPVTAANGSDSESETSESDDDSPPRPAAVAVHKREEDEEEDDEFEEVADDPIVMVAGRPFSYSEVSQRPELVAQMTPEEKEAYIAMGQRMFEDLFE
notes: TFIIEα, the α subunit of the general transcription factor TFIIE; The methods name an anti-Flag-Tag antibody among those used for the co-immunoprecipitations; also called rIIEα/WT; the α subunit of rIIEαβ; source: E. coli, purified; alone or co-produced with rIIEβ
B2: His-TFIIEβ/WT (natural protein, UniProt P29084 1-291, looked up)
chain: MDPSLLRERELFKKRALSTPVVEKRSASSESSSSSSKKKKTKVEHGGSSGSKQNSDHSNGSFNLKALSGSSGYKFGVLAKIVNYMKTRHQRGDTHPLTLDEILDETQHLDIGLKQKQWLMTEALVNNPKIEVIDGKYAFKPKYNVRDKKALLRLLDQHDQRGLGGILLEDIEEALPNSQKAVKALGDQILFVNRPDKKKILFFNDKSCQFSVDEEFQKLWRSVTVDSMDEEKIEEYLKRQGISSMQESGPKKVAPIQRRKKPASQKKRRFKTHNEHLAGVLKDYSDITSSK
notes: TFIIEβ, the β subunit of the general transcription factor TFIIE, encoded by GTF2E2; also called rIIEβ/WT; the β subunit of rIIEαβ/WT; source: E. coli, purified; alone or co-produced with rIIEα/WT
B3: His-TFIIEβ/A150P (natural protein, UniProt P29084 1-291, looked up)
chain: B2 chain with A150P
notes: TFIIEβ with the trichothiodystrophy patient mutation c.448G>C [p.Ala150Pro]; The mutation is found in TTD patients; also called rIIEβ/A150P; the β subunit of rIIEαβ/A150P; source: E. coli, co-produced with rIIEα/WT, purified
B4: His-TFIIEβ/D187Y (natural protein, UniProt P29084 1-291, looked up)
chain: B2 chain with D187Y
notes: TFIIEβ with the trichothiodystrophy patient mutation D187Y; The mutation is found in TTD patients; also called rIIEβ/D187Y; the β subunit of rIIEαβ/D187Y; source: E. coli, co-produced with rIIEα/WT, purified
B5: CDK7 (natural protein, UniProt P50613 1-346, looked up)
chain: MALDVKSRAKRYEKLDFLGEGQFATVYKARDKNTNQIVAIKKIKLGHRSEAKDGINRTALREIKLLQELSHPNIIGLLDAFGHKSNISLVFDFMETDLEVIIKDNSLVLTPSHIKAYMLMTLQGLEYLHQHWILHRDLKPNNLLLDENGVLKLADFGLAKSFGSPNRAYTHQVVTRWYRAPELLFGARMYGVGVDMWAVGCILAELLLRVPFLPGDSDLDQLTRIFETLGTPTEEQWPDMCSLPDYVTFKSFPGIPLHHIFSAAGDDLLDLIQGLFLFNPCARITATQALKMKYFSNRPGPTPGCQLPRPNCPVETLKEQSNPALAIKRKRTEALEQGGLPKKLIF
notes: CDK7 kinase, CAK subunit of TFIIH; It stood in the assay together with the other TFIIH subunits; also called CDK7 kinase of the CAK; source: Sf21 insect cells infected with baculoviruses for all TFIIH subunits; in whole cell extract, and purified within rIIH through Flag-XPD

How the values were obtained:
Details in all cases: both partners purified
[1] = target: T1, recombinant TFIIH (rIIH/WT) (UniProt P18074 1-760; P19447 1-782; P32780 1-548; Q92759 1-462; Q13888 1-395; Q13889 …); assay: co-IP; rIIH/WT immunoprecipitated with anti-p62 (protein G magnetic beads) and incubated with rIIEαβ (α and β added together as the co-produced rIIE), washes at 150 and 500 mM KCl; blots with anti-XPB, anti-IIEα, anti-IIEβ (Fig. 3b)
T1 construct: XPD subunit of TFIIH; XPB subunit of TFIIH; p62 subunit of TFIIH; p52 subunit of TFIIH; p44 subunit of TFIIH; p34 subunit of TFIIH; p8 (TTDA, TTD-A) subunit of TFIIH; cdk7 (CDK7 kinase), CAK subunit of TFIIH; cyclin H, CAK subunit of TFIIH; MAT1, CAK subunit of TFIIH; also called rIIH-XPD/WT; TFIIH/WT; copies: + + + + + + + + +

[2] = target: B1; assay: co-IP; rIIEα/WT co-produced with rIIEβ/WT, /A150P or /D187Y, immunoprecipitated at 150 and 500 mM KCl; blots for IIEα and IIEβ (Fig. 3e)
[3] = target: T2, Flag-XPD/WT (UniProt P18074 1-760); assay: co-IP; purified rIIH with XPD/WT, /R112H or /R722W immunoprecipitated with anti-XPD and incubated at 150 and 500 mM KCl; blots for XPB, XPD, CDK7 (Fig. 3f)
T2 construct: XPD subunit of TFIIH; also called the XPD subunit of rIIH/WT; source: Sf21 insect cells infected with baculoviruses for all TFIIH subunits

| Binder | binding result [1] | binding result [2] | binding result [3] |
| --- | --- | --- | --- |
| B1 | binds | – | – |
| B2 | binds | binds | – |
| B3 | binds | binds | – |
| B4 | binds | binds | – |
| B5 | – | – | binds |
